Data: US20090061015
Positions count from the first letter of the chain named. Names and notes keep the numbering of the source.

Legend:
[1] = target: T1, recombinant human AceCS2^myc-His (residues 38-689, C-terminal myc-His tag, purified from E. coli), acetylated at Lys642 (UniProt Q9NUB1)
T1 sequence: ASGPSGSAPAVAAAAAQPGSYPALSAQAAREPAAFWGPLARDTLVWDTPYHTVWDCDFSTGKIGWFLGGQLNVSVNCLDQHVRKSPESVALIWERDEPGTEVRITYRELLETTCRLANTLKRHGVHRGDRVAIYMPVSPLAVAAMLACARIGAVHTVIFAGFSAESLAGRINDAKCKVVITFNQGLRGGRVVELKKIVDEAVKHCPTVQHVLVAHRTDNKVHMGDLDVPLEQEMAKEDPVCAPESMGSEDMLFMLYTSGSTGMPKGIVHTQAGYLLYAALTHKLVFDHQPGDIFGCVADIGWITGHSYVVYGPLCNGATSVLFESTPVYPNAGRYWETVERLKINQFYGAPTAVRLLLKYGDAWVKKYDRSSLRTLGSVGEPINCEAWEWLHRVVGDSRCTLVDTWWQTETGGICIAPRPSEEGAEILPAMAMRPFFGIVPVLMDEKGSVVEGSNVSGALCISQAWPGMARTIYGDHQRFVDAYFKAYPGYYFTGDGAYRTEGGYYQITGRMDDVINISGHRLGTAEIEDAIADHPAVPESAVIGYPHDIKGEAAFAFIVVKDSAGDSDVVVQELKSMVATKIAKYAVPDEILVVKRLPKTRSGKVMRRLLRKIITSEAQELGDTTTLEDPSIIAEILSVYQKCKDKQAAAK

[2] = target: T2, recombinant human AceCS2^myc-His (residues 38-689, C-terminal myc-His tag, purified from E. coli), acetylated at Lys642, Q9NUB1
T2 chain: T1 sequence

recombinant human SIRT5 lacking the first 11 residues (residues 12-310, myc-His tagged)
in vitro deacetylation of AceCS2 (immunoblot with acetyl-lysine-specific antibodies) [1]: both recombinant SIRT5 proteins failed to do so

recombinant human SIRT5 lacking the first 38 residues (residues 39-310, myc-His tagged)
in vitro deacetylation of AceCS2 (immunoblot with acetyl-lysine-specific antibodies) [1]: both recombinant SIRT5 proteins failed to do so

B1: Flag-tagged SIRT4 (protein)
chain: IGLFVPASPPLDPEKVKELQRFITLSKRLLVMTGAGISTESGIPDYRSEKVGLYARTDRRPIQHGDFVRSAPIRQRYWARNFVGWPQFSSHQPNPAHWALSTWEKLGKLYWLVTQNVDALHTKAGSRRLTELHGCMDRVLCLDCGEQTPRGVLQERFQVLNPTWSAEAHGLAPDGDVFLSEEQVRSFQVPTCVQCGGHLKPDVVFFGDTVNPDKVDFVHKRVKEADSLLVVGSSLQVYSGYRFILTAWEKKLPIAILNIGPTRSDDLACLKLNSRCGELLPLIDPC
in vitro deacetylation of AceCS2 [2]: did not deacetylate AceCS2 (data not shown)

B2: recombinant human SIRT3 (residues 102-399, myc-His tagged, purified from E. coli) (protein)
chain: ISFSVGASSVVGSGGSSDKGKLSLQDVAELIRARACQRVVVMVGAGISTPSGIPDFRSPGSGLYSNLQQYDLPYPEAIFELPFFFHNPKPFFTLAKELYPGNYKPNVTHYFLRLLHDKGLLLRLYTQNIDGLERVSGIPASKLVEAHGTFASATCTVCQRPFPGEDIRADVMADRVPRCPVCTGVVKPDIVFFGEPLPQRFLLHVVDFPMADLLLILGTSLEVEPFASLTEAVRSSVPRLLINRDLVGPLAWHPRSRDVAQLGDVVHGVESLVELLGWTEEMRDLVQRETGKLDGPDK
acetyl-CoA synthetase specific activity of AceCS2 after incubation with SIRT3 [2]: deacetylation by SIRT3 was associated with a significant increase in enzymatic activity
in vitro deacetylation of AceCS2 (immunoblot with acetyl-lysine-specific antibodies) [2]: recombinant SIRT3 effectively deacetylated AceCS2
in vitro deacetylation of hyperacetylated AceCS2 with NAD^+ [2]: This treatment led to a complete deacetylation of AceCS2
time course of AceCS2 deacetylation and of its enzymatic activity [2]: incubation of AceCS2 with SIRT3 and NAD^+ caused a progressive deacetylation of AceCS2 over time

B3: recombinant human SIRT3-H248Y (residues 102-399, myc-His tagged, purified from E. coli), catalytically inactive mutant (protein)
chain: B2 chain with H147Y
in vitro deacetylation of AceCS2 (immunoblot with acetyl-lysine-specific antibodies) [2]: the catalytically inactive SIRT3-H248Y mutant did not deacetylate AceCS2, despite the presence of NAD^+
in vitro deacetylation of hyperacetylated AceCS2 with NAD^+ [2]: No deacetylation of AceCS2 was observed when NAD^+ was omitted from the reaction, or when a catalytically inactive SIRT3 mutant (H248Y) was used
time course of AceCS2 deacetylation [2]: could not be observed with the inactive SIRT3-H248Y mutant

B4: Flag-tagged SIRT3 (SIRT3^Flag, expressed in HEK293 or COS-1 cells) (protein)
chain: B2 chain
in vitro deacetylation of AceCS2 (immunoblot with acetyl-lysine-specific antibodies) [2]: immunoprecipitated Flag-tagged SIRT3 deacetylated AceCS2 in a NAD^+-dependent manner

B5: Flag-tagged SIRT5 (SIRT5^Flag, expressed in HEK293 or COS-1 cells) (protein)
chain: SSSMADFRKFFAKAKHIVIISGAGVSAESGVPTFRGAGGYWRKWQAQDLATPLAFAHNPSRVWEFYHYRREVMGSKEPNAGHRAIAECETRLGKQGRRVVVITQNIDELHRKAGTKNLLEIHGSLFKTRCTSCGVVAENYKSPICPALSGKGAPEPGTQDASIPVEKLPRCEEAGCGGLLRPHVVWFGENLDPAILEEVDRELAHCDLCLVVGTSSVVYPAAMFAPQVAARGVPVAEFNTETTPATNRFRFHFQGPCGTTLPEALACHENETVS
in vitro deacetylation of AceCS2 (immunoblot with acetyl-lysine-specific antibodies) [2]: it failed to deacetylate AceCS2
